Assay results taken from patent publication US20090324700A1, “METHODS AND COMPOSITIONS FOR THE INHIBITION OF CATHEPSINS” (priority 2003, published 2009).

Key:
caspase 9 = biological target: T1, caspase 9 (Homo sapiens, UniProt P55211); experiment: Protease specificity of Spi2A: caspase 9; format: biochemical; settings: FIG. 6B
T1 construct: purchased Calbiochem or Athens Research and Technology
T1 sequence (P55211 1-315 limits assumed): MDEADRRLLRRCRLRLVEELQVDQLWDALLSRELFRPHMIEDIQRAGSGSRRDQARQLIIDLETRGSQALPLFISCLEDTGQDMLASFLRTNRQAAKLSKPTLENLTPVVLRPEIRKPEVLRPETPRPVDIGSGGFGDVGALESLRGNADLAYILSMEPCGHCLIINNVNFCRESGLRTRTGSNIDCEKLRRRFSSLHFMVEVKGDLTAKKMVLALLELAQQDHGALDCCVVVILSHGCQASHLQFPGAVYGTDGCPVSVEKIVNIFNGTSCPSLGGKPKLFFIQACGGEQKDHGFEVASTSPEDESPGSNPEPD
T1 sequence (P55211 331-416 limits assumed): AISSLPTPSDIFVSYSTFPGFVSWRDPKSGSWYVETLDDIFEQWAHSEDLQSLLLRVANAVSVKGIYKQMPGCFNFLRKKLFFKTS
Experimental: (§1) Protease specificity of Spi2A. RelA^−/− MEFs were transduced with retrovirus encoding Spi2A with a C-terminal 3×FLAG epitope tag and Spi2A-3×FLAG purified using a method described previously (Cooley et al., 1998). Briefly, cells (3×10^9) were lysed and Spi2A-3×FLAG (75 μg) purified by batch Q-Fast Flow ion-exchange chromatography (Pharmacia Biotech) after elution at 160-220 mM NaCl followed by anti-FLAG antibody columns, performed according to manufacturer's instructions (Sigma-Aldrich). Spi2A-3×FLAG was dialysed into PBS and stored as aliquots at −80° C. until needed.
(§2) Proteases were purchases from the manufacturers (Calbiochem or Athens Research and Technology) except granzymes A and B which were purified as described (Hanna et al., 1993) and cathespin V and K, which were purified as described (Bromme et al., 1999; Linnevers et al., 1997). Proteases (20 nM) were incubated in the appropriate assay buffer with Spi2A at 200 nM (at least 10-fold excess of inhibitor to maintain pseudo-first order conditions) for 1 h at 37° C. Control samples included only the enzyme, without the inhibitor. At the end of 1 h protease activity was assayed. […] Substrate hydrolysis was measured in a fluorescence microtiter plate reader (Spectramax Gemini XS, Molecular Devices). Percentage inhibition was calculated from the residual enzyme activity compared to no Spi2A controls. […]

caspase 3 = biological target: T2, caspase 3 (Homo sapiens, UniProt P42574); experiment: Protease specificity of Spi2A: caspase 3; format: biochemical; settings: FIG. 6B
T2 construct: purchased Calbiochem or Athens Research and Technology
T2 sequence (P42574 29-175 limits assumed): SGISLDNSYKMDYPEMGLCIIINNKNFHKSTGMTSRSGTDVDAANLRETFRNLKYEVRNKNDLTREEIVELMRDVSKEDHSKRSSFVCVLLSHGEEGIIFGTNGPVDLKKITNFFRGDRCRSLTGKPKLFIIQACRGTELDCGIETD
T2 sequence (P42574 176-277 limits assumed): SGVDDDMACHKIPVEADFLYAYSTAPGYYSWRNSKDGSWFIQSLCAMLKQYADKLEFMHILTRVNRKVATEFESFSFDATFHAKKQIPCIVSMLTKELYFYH
Experimental: as §1, §2

caspase 8 = biological target: T3, caspase 8 (Homo sapiens, UniProt Q14790); experiment: Protease specificity of Spi2A: caspase 8; format: biochemical; settings: FIG. 6B
T3 construct: purchased Calbiochem or Athens Research and Technology
T3 sequence (Q14790 217-374 limits assumed, species assumed): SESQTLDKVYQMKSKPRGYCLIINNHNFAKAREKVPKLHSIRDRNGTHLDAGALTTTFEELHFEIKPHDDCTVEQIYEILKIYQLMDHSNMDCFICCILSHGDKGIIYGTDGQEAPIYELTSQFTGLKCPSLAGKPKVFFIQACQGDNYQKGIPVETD
T3 sequence (Q14790 385-479 limits assumed, species assumed): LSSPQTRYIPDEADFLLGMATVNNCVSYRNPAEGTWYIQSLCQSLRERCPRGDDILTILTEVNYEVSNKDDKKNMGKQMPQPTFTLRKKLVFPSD
Experimental: as §1, §2

human cathepsin G = biological target: T4, human cathepsin G (Homo sapiens, UniProt P08311); experiment: Protease specificity of Spi2A: cathepsin G; format: biochemical; settings: protease 20 nM, Spi2A 200 nM, 1 h at 37° C; FIG. 6B
T4 construct: purchased Calbiochem or Athens Research and Technology
T4 sequence (P08311 21-244): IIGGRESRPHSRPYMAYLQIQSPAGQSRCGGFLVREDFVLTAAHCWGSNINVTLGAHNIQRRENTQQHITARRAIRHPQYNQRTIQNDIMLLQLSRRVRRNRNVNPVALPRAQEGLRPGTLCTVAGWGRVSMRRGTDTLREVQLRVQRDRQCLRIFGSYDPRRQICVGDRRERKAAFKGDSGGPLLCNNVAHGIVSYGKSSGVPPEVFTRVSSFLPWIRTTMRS
Experimental: as §1, §2

NIH3T3 cells = experiment: TNF-α death assays, NIH3T3 cells; format: cell-based; settings: TNF-α + Z-VAD.fmk 50 μM; FIG. 9B, 10B
Experimental: TNF-α death assays. NIH3T3 cells were transduced with MIGR1 retrovirus (Zhang and Ren, 1998) encoding either GFP alone, or Spi2A in the forward (sense) or reverse (antisense) orientation and stable clones generated, as described previously (Liu et al., 2003). Cells were treated with TNF-α (R&D) and after 16 h the number of live GFP-positive adherent cells were counted by flow cytometry (Liu et al., 2003). Live cells were defined as those that excluded propidium iodide (PI-negative) and had the appropriate size, as defined by forward and side light scatter characteristics. Caspase activity was inhibited by pre-treatment of cells or extracts for 1 h with Z-VAD.fmk (ICN Biomedicals Inc; 50 μM). […] In anti-sense experiments the level of Spi2A mRNA was quantitated by real-time PCR using primers and probes specific for Spi2A (Inglis et al., 1991) and cyclofilin A control mRNA (Medhurst et al., 2000), 4 h after treatment with Z-VAD.fmk ([…]) and TNF-α (10 ng/ml), as described previously (Liu et al., 2003).

human cathepsin V = biological target: T5, human cathepsin V (Homo sapiens, UniProt O60911); experiment: Protease specificity of Spi2A: cathepsin V; format: biochemical; settings: protease 20 nM, Spi2A 200 nM, 1 h at 37° C; FIG. 6B
T5 construct: made in house
T5 sequence (O60911 114-334): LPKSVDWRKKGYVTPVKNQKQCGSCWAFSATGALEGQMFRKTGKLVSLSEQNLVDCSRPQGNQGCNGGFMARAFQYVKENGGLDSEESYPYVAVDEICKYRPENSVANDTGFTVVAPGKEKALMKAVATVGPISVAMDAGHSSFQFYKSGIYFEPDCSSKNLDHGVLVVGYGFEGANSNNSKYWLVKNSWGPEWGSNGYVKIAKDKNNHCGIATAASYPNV
Experimental: as §1, §2

human cathepsin K = biological target: T6, human cathepsin K (Homo sapiens, UniProt P43235); experiment: Protease specificity of Spi2A: cathepsin K; format: biochemical; settings: protease 20 nM, Spi2A 200 nM, 1 h at 37° C; FIG. 6B
T6 construct: made in house
T6 sequence (P43235 115-329): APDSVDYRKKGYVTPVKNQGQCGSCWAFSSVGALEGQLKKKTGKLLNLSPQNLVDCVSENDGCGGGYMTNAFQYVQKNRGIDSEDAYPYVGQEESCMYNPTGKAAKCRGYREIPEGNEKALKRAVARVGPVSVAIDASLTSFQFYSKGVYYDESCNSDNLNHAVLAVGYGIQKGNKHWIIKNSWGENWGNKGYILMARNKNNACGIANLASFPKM
Experimental: as §1, §2

B1: Spi2A: murine Spi2A polypeptide, SEQ ID NO:2; purified as C-terminal 3×FLAG protein or expressed from MIGR1 retrovirus in cells and bone-marrow chimeras (protein, listed as Mus musculus)
chain: MAGVSPAVFGCPDVTLGRNTAVREVQENVTSVDSLTLVSSNTDFAFSLYRKLVLKNPDENVVFSPFSICTALALLSLGAKSNTLKEILEGLKFNLTETPEPDIHQGFRYLLDLLSQPGNQVQISTGSALFIEKHLQILAEFKEKARALYQAEAFTADFQQPLKATKLINDYVSNHTQGKIKELISGLKESTLMVLVNYIYFKGKWKNPFDPNDTFKSEFYLDEKRSVIVSMMKTGYLTTPYFRDEELSCTVVELKYTGNASAMFILPDQGRMQQVEASLQPETLRKWKNSLKPRMIHELRLPKFSISTDYSLEHILPELGIREVFSTHADLSAITGTKDLRVSQVVHKAVLDVAEKGTEAAAATGMAGVGCCAVFDFLEIFFNRPFLMIISDTKAHIALFMAKVTNPERSTNFPNGEGASSQRLESKRLCFGDPLCLIGQ
modifications: C-terminal 3xFLAG tag
notes: purified as C-terminal 3×FLAG protein or expressed from MIGR1 retrovirus in cells and bone-marrow chimeras
**Q.** For B1, which “Inhibition of protease by Spi2A (percentage inhibition)” value (shortened to “Inhibition … (percentage inhibition)”) (caspase 9) is on record?
**A.** did not extend to any of the caspases tested

**Q.** And the “Inhibition … (percentage inhibition)” value (caspase 3)?
**A.** did not extend to any of the caspases tested

**Q.** What about the “Inhibition … (percentage inhibition)” value (caspase 8) of the same molecule?
**A.** did not extend to any of the caspases tested

**Q.** What about the “Inhibition … (percentage inhibition)” value (human cathepsin G) of the same molecule?
**A.** inhibited

**Q.** And the “Survival against TNF-α in the absence of caspase activity, transduced clones vs GFP” value (NIH3T3 cells)?
**A.** markedly improved survival

**Q.** What about the “Inhibition … (percentage inhibition)” value (human cathepsin V) of the same molecule?
**A.** extended to all of the lysosomal, papain-like proteases that were examined

**Q.** And the “Inhibition … (percentage inhibition)” value (human cathepsin K)?
**A.** extended to all of the lysosomal, papain-like proteases that were examined
